B1: Protein RCR1 (Saccharomyces cerevisiae), P38212 (parent)
chain: MGLISYENEAINEVKKADNHHVSKFVTSYYGPSSSSWQSGIWILFVLFVAAVILIILFTFVANRRRRRMGRAPIRGTAWLTPPSYRQSQQQYTGTVQQRTDDYVPEYTETANEHDLGYYDQRGEFHPNDKAAYVAPPPLVQECSSESVNSLERPPAAVVHQANSLDTDYGLTRPSNGRVPAVSDTVEQLERLPGGTTTQEINPPERAKVNARS
B2: Protein RCR1 (Saccharomyces cerevisiae), P38212 (parent)
chain: B1 chain
partner: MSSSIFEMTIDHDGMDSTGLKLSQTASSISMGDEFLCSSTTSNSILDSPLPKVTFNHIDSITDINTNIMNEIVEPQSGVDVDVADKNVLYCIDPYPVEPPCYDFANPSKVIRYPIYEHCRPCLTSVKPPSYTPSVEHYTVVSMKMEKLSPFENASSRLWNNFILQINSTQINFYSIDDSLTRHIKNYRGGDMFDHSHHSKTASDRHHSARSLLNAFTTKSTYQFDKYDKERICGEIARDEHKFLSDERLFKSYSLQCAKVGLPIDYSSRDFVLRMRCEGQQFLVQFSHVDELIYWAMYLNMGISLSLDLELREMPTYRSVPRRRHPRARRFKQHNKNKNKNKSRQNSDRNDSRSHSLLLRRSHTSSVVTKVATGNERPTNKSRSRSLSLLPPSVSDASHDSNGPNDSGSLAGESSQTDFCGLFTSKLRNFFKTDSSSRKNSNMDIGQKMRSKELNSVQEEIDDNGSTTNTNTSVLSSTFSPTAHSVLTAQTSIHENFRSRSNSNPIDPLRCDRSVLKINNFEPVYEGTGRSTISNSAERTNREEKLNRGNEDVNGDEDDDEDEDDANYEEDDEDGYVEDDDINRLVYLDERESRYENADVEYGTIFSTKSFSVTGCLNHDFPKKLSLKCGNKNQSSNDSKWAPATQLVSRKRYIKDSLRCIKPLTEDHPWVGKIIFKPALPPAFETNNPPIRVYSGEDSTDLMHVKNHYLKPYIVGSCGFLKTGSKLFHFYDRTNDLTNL

Variants of: B1
Details: with rsp5_yeast RSP5, P39940
rsp5_yeast RSP5, P39940, sequence (P39940 whole entry): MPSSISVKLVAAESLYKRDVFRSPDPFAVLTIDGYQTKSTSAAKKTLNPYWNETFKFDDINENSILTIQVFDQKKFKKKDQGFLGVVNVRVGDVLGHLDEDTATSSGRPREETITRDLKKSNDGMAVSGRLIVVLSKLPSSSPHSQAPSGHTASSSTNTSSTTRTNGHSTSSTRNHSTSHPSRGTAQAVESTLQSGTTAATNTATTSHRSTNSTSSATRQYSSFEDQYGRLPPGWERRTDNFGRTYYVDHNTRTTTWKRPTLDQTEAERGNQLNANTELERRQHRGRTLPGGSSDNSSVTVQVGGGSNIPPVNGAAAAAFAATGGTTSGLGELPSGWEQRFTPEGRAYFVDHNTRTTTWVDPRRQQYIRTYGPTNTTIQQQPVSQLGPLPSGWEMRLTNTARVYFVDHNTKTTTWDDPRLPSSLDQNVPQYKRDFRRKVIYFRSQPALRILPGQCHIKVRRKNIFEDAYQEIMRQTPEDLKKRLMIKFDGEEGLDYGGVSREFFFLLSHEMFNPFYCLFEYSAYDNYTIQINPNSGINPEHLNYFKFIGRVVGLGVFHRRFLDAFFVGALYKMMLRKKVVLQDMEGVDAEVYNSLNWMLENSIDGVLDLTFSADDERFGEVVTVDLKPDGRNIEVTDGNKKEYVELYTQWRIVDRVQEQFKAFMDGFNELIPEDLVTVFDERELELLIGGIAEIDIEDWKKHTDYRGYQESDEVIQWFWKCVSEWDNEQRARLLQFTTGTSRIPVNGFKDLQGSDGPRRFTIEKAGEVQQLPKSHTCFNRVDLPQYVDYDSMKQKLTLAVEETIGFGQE

Row | Variant | effect of a mutation on the interaction
1 | P82Q;P83A | decreasing interaction
2 | P105A | disrupting interaction

Variants of: B1
Details: with rsp5_yeast RSP5, P39940
Remark: another data set of the same source

Row | Variant | effect of a mutation on the interaction
3 | P105A | decreasing interaction
4 | P82Q;P83A;P105A | disrupting interaction

Variants of: B2
Details: with yno4_yeast yno4, P53907

Row | Variant | effect of a mutation on the interaction
5 | P82Q;P83A | disrupting interaction
